Experimental data taken from PMC3585047 (The Journal of Biological Chemistry, 2013).

Target: APOBEC3G, fluorescein-labelled (F-A3G) (human, UniProt Q9HC16 1-384, fluorescein (Fluorescein-EX Protein Labeling kit), sites not stated)
Assay: fluorescence polarisation

APOBEC3G, fluorescein-labelled (F-A3G), sequence (Q9HC16 whole entry): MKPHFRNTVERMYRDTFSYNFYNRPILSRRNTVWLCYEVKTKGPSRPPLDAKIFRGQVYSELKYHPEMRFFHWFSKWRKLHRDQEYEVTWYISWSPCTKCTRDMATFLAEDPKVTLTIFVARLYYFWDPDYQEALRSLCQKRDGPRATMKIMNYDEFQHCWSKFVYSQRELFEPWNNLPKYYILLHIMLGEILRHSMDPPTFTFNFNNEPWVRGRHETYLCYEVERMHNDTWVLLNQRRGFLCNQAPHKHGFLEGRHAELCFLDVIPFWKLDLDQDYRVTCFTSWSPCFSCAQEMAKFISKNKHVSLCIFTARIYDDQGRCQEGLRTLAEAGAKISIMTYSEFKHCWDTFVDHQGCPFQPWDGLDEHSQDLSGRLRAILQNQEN

B1: GST-Vif_(IIIB) (natural protein)
chain: not shown
B1 was tested, and the Kd was 78 nM.

B2: GST-Vif_(HXB2) (natural protein)
chain: not shown
Binder B2 has a Kd of 90 nM.
